From patent US5753229 come the findings set out here.

Test [1] concerns the target Ag 2.15 (FC-2.15 antigen of breast tumor cells; membrane bands of 160 kDa, 130 kDa and 115 kDa) (human).
For test [2] the target is unchanged. The experiment in a line: cell ELISA on MCF-7 cells after periodate oxidation, against untreated cells. (In an ELISA, binding on a coated surface is turned into a signal by an enzyme label.)

B1: monoclonal antibody FC-2.15 (antibody, V domains shown)
VH: VKLQESGGGLVQPGGSLKLSCAASGFDFSRYWMSYVRQAPGKGLEWIGEIDPDSSTINYTPSLKDKFIISRDNAKNTLYLQMSKVRSEDTALYYCARETGTPFDYWGQGTTLTVSS
VL: DIVMTQSPASLSVATGEKVTIRCITSTDIDDDMNWYEQKPGEPPKLLISEGNTLRPGVPSPFSSSGYGTDFVFTIENTHSEDVADYYCLQSDNMPFTFGSGTKLEIKP
B1 had a Residual clonogenic ability (%) after MAb and rabbit complement in test [1] of 11.7%. For the same molecule, in test [2], the % inhibition of reactivity by 10 mM periodate was found to be 47.1%.
